Reference: paper doi:10.1101/751974 (bioRxiv, 2019)

Experiments:
[1] = target: recombinant MCM8-9 complex, purified (human, UniProt Q9NXL9-1;Q9UJA3-1); experiment: native gel or EMSA
[2] = target: MBP-MCM8-9 complex, amylose bead-bound (human, UniProt Q9NXL9-1;Q9UJA3-1); experiment: pull-down
Sequence of MBP-MCM8-9 complex, amylose bead-bound (Q9NXL9 whole entry, chain 1 of 2): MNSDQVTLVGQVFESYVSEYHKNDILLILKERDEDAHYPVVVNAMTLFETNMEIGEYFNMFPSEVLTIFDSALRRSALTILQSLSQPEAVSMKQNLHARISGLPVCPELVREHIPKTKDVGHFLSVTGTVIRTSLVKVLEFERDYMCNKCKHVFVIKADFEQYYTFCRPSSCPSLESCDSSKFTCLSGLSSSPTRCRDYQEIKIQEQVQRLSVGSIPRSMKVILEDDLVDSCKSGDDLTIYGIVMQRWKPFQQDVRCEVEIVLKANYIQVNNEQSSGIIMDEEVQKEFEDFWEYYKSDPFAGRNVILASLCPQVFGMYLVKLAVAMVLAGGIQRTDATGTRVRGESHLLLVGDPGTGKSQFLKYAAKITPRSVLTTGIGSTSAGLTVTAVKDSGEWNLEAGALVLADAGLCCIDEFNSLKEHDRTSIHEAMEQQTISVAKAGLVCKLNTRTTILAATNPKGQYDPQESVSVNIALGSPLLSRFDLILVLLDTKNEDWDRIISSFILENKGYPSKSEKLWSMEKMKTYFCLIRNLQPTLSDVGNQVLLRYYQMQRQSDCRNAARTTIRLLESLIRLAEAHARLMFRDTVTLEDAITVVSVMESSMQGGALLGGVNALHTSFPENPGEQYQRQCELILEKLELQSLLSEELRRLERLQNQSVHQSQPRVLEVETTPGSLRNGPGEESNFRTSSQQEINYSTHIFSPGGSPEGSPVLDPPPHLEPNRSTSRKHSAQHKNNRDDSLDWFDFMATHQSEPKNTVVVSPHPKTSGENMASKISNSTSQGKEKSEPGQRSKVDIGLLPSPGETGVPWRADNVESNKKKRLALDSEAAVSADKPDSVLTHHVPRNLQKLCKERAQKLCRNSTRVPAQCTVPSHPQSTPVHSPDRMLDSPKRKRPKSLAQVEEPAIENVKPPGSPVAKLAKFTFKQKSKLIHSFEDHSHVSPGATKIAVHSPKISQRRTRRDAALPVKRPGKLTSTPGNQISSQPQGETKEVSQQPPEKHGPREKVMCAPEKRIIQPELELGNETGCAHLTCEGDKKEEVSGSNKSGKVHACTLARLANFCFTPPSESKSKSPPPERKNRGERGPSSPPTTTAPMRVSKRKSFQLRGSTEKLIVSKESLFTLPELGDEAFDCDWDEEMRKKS
Sequence of MBP-MCM8-9 complex, amylose bead-bound (Q9UJA3 whole entry, chain 2 of 2): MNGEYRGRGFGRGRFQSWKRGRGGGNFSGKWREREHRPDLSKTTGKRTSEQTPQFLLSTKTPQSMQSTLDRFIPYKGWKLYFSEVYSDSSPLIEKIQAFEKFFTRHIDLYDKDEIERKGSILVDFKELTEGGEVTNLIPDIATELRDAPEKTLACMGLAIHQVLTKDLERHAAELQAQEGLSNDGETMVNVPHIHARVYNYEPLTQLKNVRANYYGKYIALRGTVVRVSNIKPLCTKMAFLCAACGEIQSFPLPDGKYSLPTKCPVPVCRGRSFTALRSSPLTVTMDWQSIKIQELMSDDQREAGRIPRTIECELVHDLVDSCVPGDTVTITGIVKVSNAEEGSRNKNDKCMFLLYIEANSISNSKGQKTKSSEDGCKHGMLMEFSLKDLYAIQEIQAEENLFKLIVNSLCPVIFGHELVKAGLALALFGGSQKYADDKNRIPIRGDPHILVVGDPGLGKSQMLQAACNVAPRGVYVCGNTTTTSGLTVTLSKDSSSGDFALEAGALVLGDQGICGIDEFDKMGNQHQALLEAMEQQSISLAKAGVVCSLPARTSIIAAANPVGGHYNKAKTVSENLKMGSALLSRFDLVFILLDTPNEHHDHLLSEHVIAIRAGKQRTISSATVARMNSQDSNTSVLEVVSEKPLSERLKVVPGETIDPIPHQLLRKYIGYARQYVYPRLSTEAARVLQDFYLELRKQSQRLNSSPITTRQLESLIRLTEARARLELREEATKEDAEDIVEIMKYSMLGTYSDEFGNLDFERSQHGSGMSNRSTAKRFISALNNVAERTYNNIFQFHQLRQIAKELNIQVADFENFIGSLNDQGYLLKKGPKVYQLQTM

Sequence of recombinant MCM8-9 complex, purified (Q9NXL9 whole entry, chain 1 of 2): as the sequence (Q9NXL9 whole entry, chain 1 of 2) above
Sequence of recombinant MCM8-9 complex, purified (Q9UJA3 whole entry, chain 2 of 2): as the sequence (Q9UJA3 whole entry, chain 2 of 2) above

binding result [1]: binds | binding result [2]: binds
B1: MCM8IP-FLAG WT (natural protein)
chain: MACSLQKLFAVEEEFEDEDFLSAVEDAENRFTGSLPVNAGRLRPVSSRPQETVQAQSSRLLLLHPTAPSEALGLPDLDLCLPASSTPSADSRPSCIGAAPLRPVSTSSSWIGNQRRVTVTEVLRETARPQSSALHPLLTFESQQQQVGGFEGPEQDEFDKVLASMELEEPGMELECGVSSEAIPILPAQQREGSVLAKKARVVDLSGSCQKGPVPAIHKAGIMSAQDESLDPVIQCRTPRPPLRPGAVGHLPVPTALTVPTQQLHWEVCPQRSPVQALQPLQAARGTIQSSPQNRFPCQPFQSPSSWLSGKAHLPRPRTPNSSCSTPSRTSSGLFPRIPLQPQAPVSSIGSPVGTPKGPQGALQTPIVTNHLVQLVTAASRTPQQPTHPSTRAKTRRFPGPAGILPHQQSGRSLEDIMVSAPQTPTHGALAKFQTEIVASSQASVEEDFGRGPWLTMKSTLGLDERDPSCFLCTYSIVMVLRKAALKQLPRNKVPNMAVMIKSLTRSTMDASVVFKDPTGEMQGTVHRLLLETCQNELKPGSVLLLKQIGVFSPSLRNHYLNVTPNNLVHIYSPDSGDGSFLKPSQPFPKDSGSFQHDVAAKPEEGFRTAQNLEAEASPEEELPEADDLDGLLSELPEDFFCGTSS
